The supplement of paper PMC9112550, “Optimization of the antimicrobial peptide Bac7 by deep mutational scanning” (BMC Biology, 2022)

tested on: Escherichia coli TOP10; test: shrunken log2 fold change of peptide-encoding DNA abundance (4.5 h post-induction vs induction); higher = less antimicrobial activity (less host growth inhibition); settings: time post-induction: 4.5 h; library: site-saturation at positions 5, 18, 19, 20
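Also: peptides expressed intracellularly from a pBAD plasmid library in pooled LB shake-flask culture, induced with 0.3% L-arabinose, DNA abundance read by NGS, three biological replicates, DESeq2 with apeglm shrinkage.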

Sequence | shrunken log2 fold change
RRIRPRPPRLPRPRPRPHWMPRP | 0.0365
RRIRDRPPRLPRPRPRPDVQPRP | 0.0508
RRIRWRPPRLPRPRPRPYRVPRP | 0.00439
RRIRCRPPRLPRPRPRPFWEPRP | -0.0195
RRIRDRPPRLPRPRPRPRHYPRP | 0.0264
RRIRFRPPRLPRPRPRPDSGPRP | -0.0156
RRIRWRPPRLPRPRPRPMLDPRP | 0.426
RRIRRRPPRLPRPRPRPCFWPRP | 0.406
RRIRMRPPRLPRPRPRPAMPPRP | 0.548
RRIRNRPPRLPRPRPRPGGTPRP | 0.154
RRIRCRPPRLPRPRPRPNMHPRP | -0.615
RRIRARPPRLPRPRPRPFCLPRP | 0.0753
RRIRLRPPRLPRPRPRPTRYPRP | 0.0777
RRIRFRPPRLPRPRPRPKATPRP | -0.061
RRIRRRPPRLPRPRPRPPAAPRP | 0.947
RRIRARPPRLPRPRPRPVNHPRP | -0.298
RRIRIRPPRLPRPRPRPTYDPRP | -1.08
RRIRNRPPRLPRPRPRPGSTPRP | -0.145
RRIRERPPRLPRPRPRPCIAPRP | -0.753
RRIRKRPPRLPRPRPRPNEEPRP | -1.35e-05
RRIRIRPPRLPRPRPRPYLNPRP | -0.239
RRIRNRPPRLPRPRPRPDCLPRP | 0.0127
RRIRQRPPRLPRPRPRPQWLPRP | 0.0957
RRIRQRPPRLPRPRPRPFMCPRP | -0.371
RRIRPRPPRLPRPRPRPIQPPRP | -0.0445

Sequence | shrunken log2 fold change
RRIRWRPPRLPRPRPRPSQNPRP | 0.236
RRIRGRPPRLPRPRPRPPQIPRP | 0.859
RRIRARPPRLPRPRPRPHGYPRP | 0.0466
RRIRKRPPRLPRPRPRPYMSPRP | 0.0659
RRIRRRPPRLPRPRPRPDHRPRP | -0.00663
RRIRARPPRLPRPRPRPNLQPRP | 0.177
RRIRPRPPRLPRPRPRPIAWPRP | 0.266
RRIRNRPPRLPRPRPRPQPWPRP | -0.00313
RRIRYRPPRLPRPRPRPHHYPRP | -1.79
RRIRPRPPRLPRPRPRPVRMPRP | 0.213
RRIRKRPPRLPRPRPRPILRPRP | -0.0475
RRIRWRPPRLPRPRPRPSDNPRP | -0.14
RRIRVRPPRLPRPRPRPSDTPRP | -0.54
RRIRVRPPRLPRPRPRPKYKPRP | -0.574
RRIRWRPPRLPRPRPRPRSNPRP | -0.133
RRIRNRPPRLPRPRPRPKMNPRP | -0.381
RRIRLRPPRLPRPRPRPMINPRP | -0.224
RRIRMRPPRLPRPRPRPRCYPRP | -0.00529
RRIRLRPPRLPRPRPRPQMVPRP | -0.108
RRIRRRPPRLPRPRPRPTFVPRP | 0.998
RRIRHRPPRLPRPRPRPMARPRP | 0.0467
RRIRGRPPRLPRPRPRPQHGPRP | 0.137
RRIRYRPPRLPRPRPRPMPWPRP | -0.0575
RRIRMRPPRLPRPRPRPWDSPRP | -0.152
RRIRYRPPRLPRPRPRPRAVPRP | 0.0585

Sequence | shrunken log2 fold change
RRIRIRPPRLPRPRPRPFSKPRP | -0.05
RRIRDRPPRLPRPRPRPHQWPRP | 0.031
RRIRDRPPRLPRPRPRPLCTPRP | 0.704
RRIRRRPPRLPRPRPRPHGVPRP | 0.055
RRIRVRPPRLPRPRPRPRQFPRP | 0.238
RRIRPRPPRLPRPRPRPHCGPRP | -0.168
RRIRHRPPRLPRPRPRPIGNPRP | -0.199
RRIRQRPPRLPRPRPRPLMNPRP | -0.131
RRIRQRPPRLPRPRPRPSSVPRP | 0.00784
RRIRMRPPRLPRPRPRPQITPRP | -0.166
RRIRLRPPRLPRPRPRPGERPRP | 0.33
RRIRYRPPRLPRPRPRPFQWPRP | 0.0299
RRIRRRPPRLPRPRPRPACGPRP | 0.429
RRIRTRPPRLPRPRPRPQRFPRP | 0.00548
RRIRLRPPRLPRPRPRPEHTPRP | 0.0956
RRIRERPPRLPRPRPRPKMDPRP | -0.0491
RRIRRRPPRLPRPRPRPHFLPRP | -0.196
RRIRCRPPRLPRPRPRPDMTPRP | -0.00325
RRIRTRPPRLPRPRPRPVCPPRP | 0.186
RRIRRRPPRLPRPRPRPPHNPRP | 1.21
RRIRLRPPRLPRPRPRPVGWPRP | 0.671
RRIRHRPPRLPRPRPRPYHSPRP | -0.0215
RRIRARPPRLPRPRPRPDLEPRP | 0.0744
RRIRGRPPRLPRPRPRPMSYPRP | 0.0417
RRIRQRPPRLPRPRPRPEQCPRP | -0.0442

Sequence | shrunken log2 fold change
RRIRARPPRLPRPRPRPFHHPRP | -0.294
RRIRRRPPRLPRPRPRPPLVPRP | 1.23
RRIRKRPPRLPRPRPRPFRIPRP | -0.0356
RRIRMRPPRLPRPRPRPGRSPRP | 0.303
RRIRHRPPRLPRPRPRPLCRPRP | 0.0244
RRIRARPPRLPRPRPRPEEVPRP | 0.0554
RRIRTRPPRLPRPRPRPRSTPRP | 0.377
RRIRHRPPRLPRPRPRPTDSPRP | 0.0894
RRIRRRPPRLPRPRPRPFAQPRP | 0.199
RRIRLRPPRLPRPRPRPHVGPRP | -0.442
RRIRLRPPRLPRPRPRPGEMPRP | 0.0594
RRIRWRPPRLPRPRPRPATWPRP | 0.152
RRIRQRPPRLPRPRPRPSWVPRP | -0.0385
RRIRERPPRLPRPRPRPKSKPRP | -0.19
RRIRHRPPRLPRPRPRPNFMPRP | -0.5
RRIRPRPPRLPRPRPRPKSWPRP | 0.258
RRIRYRPPRLPRPRPRPLGAPRP | -0.103
RRIRTRPPRLPRPRPRPISLPRP | -0.0795
RRIRYRPPRLPRPRPRPQRFPRP | -0.0259
RRIRDRPPRLPRPRPRPWFMPRP | 0.0254
RRIRGRPPRLPRPRPRPLHAPRP | 1.54
RRIRCRPPRLPRPRPRPGNIPRP | -0.198
RRIRQRPPRLPRPRPRPYTGPRP | -0.0162
RRIRRRPPRLPRPRPRPIHCPRP | -0.0105
RRIRCRPPRLPRPRPRPNCSPRP | 0.0117

Sequence | shrunken log2 fold change
RRIRGRPPRLPRPRPRPQHRPRP | 0.212
RRIRARPPRLPRPRPRPSMHPRP | 0.163
RRIRGRPPRLPRPRPRPNREPRP | -0.0791
RRIRSRPPRLPRPRPRPNVSPRP | -0.0656
RRIRDRPPRLPRPRPRPCMKPRP | -0.0664
RRIRSRPPRLPRPRPRPCDCPRP | -0.239
RRIRMRPPRLPRPRPRPDDEPRP | 0.123
RRIRCRPPRLPRPRPRPMWRPRP | 0.276
RRIRARPPRLPRPRPRPPVKPRP | 0.404
RRIRPRPPRLPRPRPRPMYRPRP | -0.752
RRIRHRPPRLPRPRPRPWLDPRP | -0.377
RRIRHRPPRLPRPRPRPVDDPRP | -0.221
RRIRARPPRLPRPRPRPYLAPRP | -0.594
RRIRYRPPRLPRPRPRPPLNPRP | -0.228
RRIRHRPPRLPRPRPRPNHMPRP | 0.124
RRIRERPPRLPRPRPRPDANPRP | -0.103
RRIRARPPRLPRPRPRPHALPRP | 0.112
RRIRKRPPRLPRPRPRPESYPRP | 0.403
RRIRMRPPRLPRPRPRPSNAPRP | 0.405
RRIRQRPPRLPRPRPRPHSNPRP | -0.0311
RRIRGRPPRLPRPRPRPVATPRP | 2.32
RRIRRRPPRLPRPRPRPFIWPRP | 0.0601
RRIRHRPPRLPRPRPRPLIMPRP | -0.561
RRIRLRPPRLPRPRPRPRWQPRP | 0.217
RRIRNRPPRLPRPRPRPHYSPRP | -0.363

Sequence | shrunken log2 fold change
RRIRDRPPRLPRPRPRPYWWPRP | 0.021
RRIRTRPPRLPRPRPRPEIQPRP | -0.00275
RRIRSRPPRLPRPRPRPWEYPRP | -0.0607
RRIRPRPPRLPRPRPRPWLQPRP | -0.064
RRIRMRPPRLPRPRPRPSCRPRP | 0.46
RRIRNRPPRLPRPRPRPYVRPRP | -0.451
RRIRTRPPRLPRPRPRPHYEPRP | -0.174
RRIRPRPPRLPRPRPRPCDIPRP | 0.024
RRIRYRPPRLPRPRPRPNAFPRP | -0.158
RRIRQRPPRLPRPRPRPVKYPRP | -0.067
RRIRARPPRLPRPRPRPDTAPRP | 0.147
RRIRNRPPRLPRPRPRPAYFPRP | -0.175
RRIRTRPPRLPRPRPRPYDHPRP | -0.097
RRIRVRPPRLPRPRPRPRWRPRP | 0.587
RRIRWRPPRLPRPRPRPAPGPRP | 0.634
RRIRPRPPRLPRPRPRPMHQPRP | 0.059
RRIRSRPPRLPRPRPRPAKYPRP | -0.215
RRIRERPPRLPRPRPRPNPYPRP | -0.304
RRIRMRPPRLPRPRPRPSCHPRP | -0.0523
RRIRVRPPRLPRPRPRPIERPRP | 0.0557
RRIRVRPPRLPRPRPRPMLYPRP | -0.375
RRIRSRPPRLPRPRPRPICVPRP | -0.111
RRIRIRPPRLPRPRPRPHRDPRP | -0.236
RRIRYRPPRLPRPRPRPREHPRP | -0.00116
RRIRIRPPRLPRPRPRPIHEPRP | -0.316
